Source: patent US20030083294, “Modulators of pharmacological agents” (published 2003)

Target: coagulation factor IXa (FIXa) (Homo sapiens, UniProt P00740;P00740 P00740:47-191,P00740:227-461)
Experiment: KD comparable to 9.3t

AUGGGGACUAUACCGGCAAUCGUGCAUCCCCAU (ssRNA, 2'-F pyrimidines, 2'-OH purines) [9.20t]
binding result: binds
